From paper PMC7660097, “Structural Insights into the Interactions of Candidal Enolase with Human Vitronectin, Fibronectin and Plasminogen” (International Journal of Molecular Sciences, 2020)

B3: human vitronectin (natural protein)
chain: DQESCKGRCTEGFNVDKKCQCDELCSYYQSCCTDYTAECKPQVTRGDVFTMPEDEYTVYDDGEEKNNATVHEQVGGPSLTSDLQAQSKGNPEQTPVLKPEEEAPAPEVGASKPEGIDSRPETLHPGRPQPPAEEELCSGKPFDAFTDLKNGSLFAFRGQYCYELDEKAVRPGYPKLIRDVWGIEGPIDAAFTRINCQGKTYLFKGSQYWRFEDGVLDPDYPRNISDGFDGIPDNVDAALALPAHSYSGRERVYFFKGKQYWEYQFQHQPSQEECEGSSLSAVFEHFAMMQRDSWEDIFELLFWGRTSAGTRQPQFISRDWHGVPGQVDAAMAGRIYISGMAPRPSLAKKQRFRHRNRKGYRSQRGHSRGRNQNSRRPSRATWLSLFSSEESNLGANNYDDYRMDWLVPATCEPIQSVFFFSGDKYYRVNLRTRRVDTVDPPYPRSIAQYWLGCPAPGHL
modifications: biotin (NHS-biotin) in the cell-binding assays of Figure 1; sulfo-SDAD on amino groups in the cross-linking
notes: Vitronectin, human; also called VTR; VTR-Bt; source: bought: R&D Systems

What was measured:
human vitronectin = target: B3; assay: SPR; BIACORE 3000; enolase amine-coupled to a CM5 chip (about 300 RU); human protein as analyte (40-750 nM or 75-750 nM), 30 µL/min, 25 °C, 10 mM HEPES, 150 mM NaCl, 0.005% P20, pH 7.4; 1:1 Langmuir global fit with baseline drift and local Rmax; regeneration 1 M NaCl; details: both partners purified
[1] = target: T1, C. albicans cell surface-exposed enolase (C. albicans, UniProt P30575 1-440, biotin (biotin-labeled enolase) in the microplate ligand-binding assay); assay: as above; details: both partners purified
T1 construct: Enolase of Candida albicans (strain ATCC 10231), form exposed at the cell surface; identified by LC-MS/MS, non-glycosylated, 47 kDa; Same protein as m2, isolated from another compartment; also called C. albicans enolase, cell wall; cell wall-associated enolase

B1: C. albicans cytosolic enolase (enzyme, UniProt P30575 1-440, looked up)
chain: MSYATKIHARYVYDSRGNPTVEVDFTTDKGLFRSIVPSGASTGVHEALELRDGDKSKWLGKGVLKAVANVNDIIAPALIKAKIDVVDQAKIDEFLLSLDGTPNKSKLGANAILGVSLAAANAAAAAQGIPLYKHIANISNAKKGKFVLPVPFQNVLNGGSHAGGALAFQEFMIAPTGVSTFSEALRIGSEVYHNLKSLTKKKYGQSAGNVGDEGGVAPDIKTPKEALDLIMDAIDKAGYKGKVGIAMDVASSEFYKDGKYDLDFKNPESDPSKWLSGPQLADLYEQLISEYPIVSIEDPFAEDDWDAWVHFFERVGDKIQIVGDDLTVTNPTRIKTAIEKKAANALLLKVNQIGTLTESIQAANDSYAAGWGVMVSHRSGETEDTFIADLSVGLRSGQIKTGAPARSERLAKLNQILRIEEELGSEAIYAGKDFQKASQL
modifications: biotin (biotin-labeled enolase) in the microplate assays
notes: Enolase of Candida albicans (strain ATCC 10231), cytosolic form; identified by LC-MS/MS; also called C. albicans enolase, cytosol; source: purified from C. albicans ATCC 10231 cytosol (ammonium sulphate fractionation, MonoQ, MonoS)
For B1, the Kd (human vitronectin) was 55.3 nM, the koff (human vitronectin) was 0.00493 s⁻¹ and the kon (human vitronectin) was 89100 M⁻¹ s⁻¹.

B2: C. tropicalis cytosolic enolase (enzyme, UniProt C5MD83 1-440, looked up)
chain: MSYATKIHARTVYDSRGNPTVEVELTTDNGMFRSIVPSGASTGIHEALELRDGDKSKWLGKGVLKAVSNVNDIIAPALIDAKIDVNDQSKIDEFMIKLDGTPNKSKLGANAILGVSLAAANAAAANQGIPLYQHIANLSKSKKDKYVLPVPFQNVLNGGAHAGGDLAFQEFMIVPTGAESFSEAMRIDSEVYHTLKSLAKKKYGQSAGNVGDEGGVAPDLRTPEEALDLIVESIEQAGHTGKVKIAMDPASSEFFKDGKYDLDFKNPNPDPAKRLSGKELAELYERLINKYPIVLLEDPFAEDDWDAWVHFFKIVGDKVQIVADDLTVTNPIRIKKAIEKKCANALLVKVNQIGTLSESIVAANDAFGAGWGVMVSHRSGETEDTFIADLVVGLRAGQIKTGAPARSERLAKLNQILRIEESLGDDAIYAGKNFAVAHQL
modifications: biotin (biotin-labeled enolase) in the microplate assays
notes: Enolase of Candida tropicalis (strain T1, ATCC MYA-3404), cytosolic form; identified by LC-MS/MS; also called C. tropicalis enolase, cytosol; source: purified from C. tropicalis T1 (ATCC MYA-3404) cytosol (ammonium sulphate fractionation, MonoQ, MonoS)
Binder B2 has a Kd (human vitronectin) of 683 nM, a koff (human vitronectin) of 0.00915 s⁻¹ and a kon (human vitronectin) of 13400 M⁻¹ s⁻¹.

Work on B3 yielded a Kd [1] of 31.1 nM, a koff [1] of 0.00417 s⁻¹ and a kon [1] of 134000 M⁻¹ s⁻¹.
